Here are results for one molecule from US20250313634A1 (WUXI BIOLOGICS SHANGHAI, published 2025).

The target in assay [1] is T1, PD-L2 expressed on transfected CHO cells (Homo sapiens (Human), UniProt Q9BQ51 20-273).
T1 construct: also called PD-L2 of PD-1 ligand family
T1 sequence: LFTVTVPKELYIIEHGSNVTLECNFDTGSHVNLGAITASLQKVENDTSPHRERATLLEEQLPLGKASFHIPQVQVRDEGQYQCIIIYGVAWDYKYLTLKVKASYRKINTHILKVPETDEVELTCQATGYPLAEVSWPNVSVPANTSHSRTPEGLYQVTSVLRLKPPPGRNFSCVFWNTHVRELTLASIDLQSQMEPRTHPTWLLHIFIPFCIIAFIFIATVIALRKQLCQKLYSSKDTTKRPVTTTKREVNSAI
As to the kind of experiment: FACS on PD-L2 transfected CHO-K1 cells, single bar, antibody concentration not shown. The protocol: 3.8 Cross-family binding assay by FACS: to examine the cross-family binding activity of the fully human antibodies, cells lines that express PD-L2 were stained with the fully human antibodies, followed by 2nd antibody staining with FITC conjugated goat anti-human IgG Fc. PD-L1 expressing cells were used as positive control. Corresponding parental cell lines were used as negative controls. The stained cells were analyzed by using a BD Biosciences FACSCanto II and FlowJo Version software.
CHO cells transfected with PD-L1 or PD-L2 were stained with fully human PD-L1 antibodies and analysis by FACS.

A further assay has as its target T2, recombinant human PD-L1 (human, UniProt Q9NZQ7 19-238, limits assumed).
T2 construct: Used for the SPR analyte (3.2) and for the plate-coated human PD-L1 of the cross-species ELISA (3.7); also called human PD-L1 (SPR analyte); Human PD-L1 coated on ELISA plates
As to the kind of experiment: surface plasmon resonance per legend paragraph 39 and paragraph 188; column Best fit-KD, mol/L from the legend. The source says: 3.2 Affinity test by surface plasmon resonance (SPR): Antibodies were characterized for affinity and binding kinetics to PD-L1 by SPR assay using ProteOn XPR36 (Bio-Rad). Protein A protein (Sigma) was immobilized to a GLM sensor chip (Bio-Rad) through amine coupling. Purified antibodies were flowed over the sensor chip and captured by the Protein A. The chip was rotated […] and washed with running buffer (1×PBS/0.01% Tween20, Bio-Rad) until the baseline is stable. Five concentrations of human PD-L1 and running buffer were flowed against the antibody flow cell at a flow rate 100 μL/min for an association phase of 240s, followed by 600s dissociation. The chip was regenerated with pH 1.7 H₃PO₄ after each run. The association and dissociation curve was fit to a 1:1 Langmiur binding model using ProteOn software.
Background: In SPR one partner is held on a chip, and binding of the other changes the refractive index at the surface.

For assay [2], the target named is T3, full-length human PD-L1 expressed on CHO cells (human, UniProt Q9NZQ7 19-290).
T3 construct: whole, on cells; also called CHO-K1 cells expressing human PD-L1; PD-L1 transfected CHO cells
T3 sequence (Q9NZQ7 19-290): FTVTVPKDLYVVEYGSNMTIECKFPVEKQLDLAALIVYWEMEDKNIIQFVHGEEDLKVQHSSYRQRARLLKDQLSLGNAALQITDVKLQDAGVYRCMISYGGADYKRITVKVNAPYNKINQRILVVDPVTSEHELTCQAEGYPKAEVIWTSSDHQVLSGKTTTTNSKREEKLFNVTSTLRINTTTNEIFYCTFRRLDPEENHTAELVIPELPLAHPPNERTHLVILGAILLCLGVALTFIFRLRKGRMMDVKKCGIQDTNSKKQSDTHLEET
As to the kind of experiment: FACS competition on CHO cells expressing human PD-L1; competitor mouse Fc-tagged human PD-1. The protocol:
(§1) 3.1 Competition assay by FACS: to examine whether the fully human antibodies can block the binding of PD-L1 to PD-1, the CHO-K1 cells expressing human PD-L1 were incubated with various concentrations of the fully human antibodies at 4° C. for 1 hour. The unbound antibodies were washed away, and then the mouse Fc-tagged human PD-1 was added to the cells. The binding of human PD-1 to PD-L1 expressing cell was detected by using FITC-conjugated goat anti-mouse IgG, followed by the analysis using a BD Biosciences FACSCanto II and FlowJo Version software.
(§2) Then the mouse Fc-tagged human PD-1 was added to the cells. The binding of human PD-1 to PD-L1 expressing cell was detected by using FITC-conjugated goat anti-mouse IgG, followed by the FACS analysis.

The target of a further assay is T4, murine PD-L1 (mouse, UniProt Q9EP73 19-238, limits assumed).
T4 construct: also called mouse PD-L1 (coated on ELISA plates)
T4 sequence (Q9EP73 19-238 limits assumed): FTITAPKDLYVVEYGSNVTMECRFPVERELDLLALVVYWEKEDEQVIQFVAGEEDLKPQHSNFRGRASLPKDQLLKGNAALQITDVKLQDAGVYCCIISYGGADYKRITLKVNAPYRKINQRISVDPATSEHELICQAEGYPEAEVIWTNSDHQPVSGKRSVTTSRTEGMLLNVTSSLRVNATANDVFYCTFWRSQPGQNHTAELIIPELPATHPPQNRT
As to the kind of experiment: ELISA, murine PD-L1 coated on the plate, goat anti-human IgG Fc-HRP; antibody concentration not shown. The protocol:
3.7 Cross-species binding assay: the cross-reactivity of the Ab to cynomolgus and murine PD-L1 was measured by ELISA. Human, cyno and mouse PD-L1 were coated on ELISA plates, respectively. After blocking, fully human antibodies were added into the plate and incubated at room temperature for at least 2 hours. The binding of the antibodies to the coated antigens was detected by using goat anti-human IgG Fc-HRP. The color reaction was developed using TMB substrate and stopped by 2M HCl. The ELISA plates were analyzed at 450 nm using a Molecular Device M5e microplate reader.
In general terms: In an ELISA, binding on a coated surface is turned into a signal by an enzyme label.

Assay [3] addresses T5, mouse PD-L1_ECD.His protein (mouse, UniProt Q9EP73 19-239).
T5 construct: extracellular domain; Bought (Sino Biological, China); also called mPD-L1-His protein
The assay can be described thus: ELISA, 2 ug/ml 1.14.4 coated on the plate, mPD-L1-His protein titrated, HRP-anti-His detection.

Assay [4] concerns the target T3, full-length human PD-L1 expressed on …. The assay can be described thus: FACS on CHO cells transfected with full-length human PD-L1.
The target in assay [5] is T6, hPD-L1_ECD.His point mutant P216A (human, UniProt Q9NZQ7 19-238).
T6 construct: extracellular domain
T6 sequence (Q9NZQ7 19-238 P216A): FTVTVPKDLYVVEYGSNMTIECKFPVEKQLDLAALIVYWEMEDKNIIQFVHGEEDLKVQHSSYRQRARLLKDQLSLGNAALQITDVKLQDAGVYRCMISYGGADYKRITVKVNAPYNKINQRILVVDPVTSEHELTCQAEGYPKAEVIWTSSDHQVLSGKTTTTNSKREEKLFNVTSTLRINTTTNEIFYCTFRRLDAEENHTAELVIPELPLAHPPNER
As to the kind of experiment: capture ELISA on coated 1.14.4; relative to silent alanine substitutions. The protocol:
(§3) After interacting with the supernatant that contains quantified PD-L1 mutant or human/mouse PD-L1_ECD.His protein (Sino Biological, China), HRP conjugated anti-His antibody (1:5000; Rockland Immunochemicals, Pottstown, PA) was added as detection antibody. Absorbance was normalized according to the average of control mutants. After setting an additional cutoff to the binding fold change (<0.55), the final determined epitope residues were identified.
(§4) The observed binding reductions most probably resulted from the instability or even collapse of hPD-L1 structure after alanine substitutions. After setting an additional cutoff to the binding fold change (<0.55), the final determined epitope residues were listed in Table 3.

Assay [6] concerns the target T7, hPD-L1_ECD.His point mutant K189A (human, UniProt Q9NZQ7 19-238).
T7 construct: extracellular domain
The assay is described as above. As for the experimental part: as §3, §4

The target of assay [7] is T8, hPD-L1_ECD.His point mutant R186A (human, UniProt Q9NZQ7 19-238).
T8 construct: extracellular domain
T8 sequence (Q9NZQ7 19-238 R186A): as the sequence (Q9NZQ7 19-238 P216A) above, with R168A, A198P counted along it
The assay is described as above. As for the experimental part: as §3, §4

Assay [8] has as its target T9, hPD-L1_ECD.His point mutant S80A (human, UniProt Q9NZQ7 19-238).
T9 construct: extracellular domain
The assay is described as above. The protocol: as §3, §4

Assay [9] deals with T3, full-length human PD-L1 expressed on …. As to the kind of experiment: FACS competition: blocking of mouse Fc-tagged human PD-1 binding to CHO cells expressing human PD-L1. As for the experimental part:
as §1, §2

T9 sequence (Q9NZQ7 19-238 S80A): as the sequence (Q9NZQ7 19-238 P216A) above, with S62A, A198P counted along it
T7 sequence (Q9NZQ7 19-238 K189A): as the sequence (Q9NZQ7 19-238 P216A) above, with K171A, A198P counted along it
T2 sequence (Q9NZQ7 19-238 limits assumed): as the sequence (Q9NZQ7 19-238 P216A) above, with A198P counted along it
T5 sequence (Q9EP73 19-239): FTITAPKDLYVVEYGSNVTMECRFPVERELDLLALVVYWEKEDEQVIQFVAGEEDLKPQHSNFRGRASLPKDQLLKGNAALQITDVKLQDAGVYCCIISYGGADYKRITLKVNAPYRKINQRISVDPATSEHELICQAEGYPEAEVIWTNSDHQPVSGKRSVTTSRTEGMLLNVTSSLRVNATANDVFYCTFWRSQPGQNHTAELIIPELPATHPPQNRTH

B1: 1.14.4 (antibody, V domains shown)
VH: EVQLLESGGGLVQPGGSLRLSCAASGFTFSSYAMSWVRQAPGKGLEWVSGISGSGGFTYYADSVKGRFTISRDNSKNTLYLQMNSLRAEDTAVYYCAKPPRGYNYGPFDYWGQGTLVTVSS
VL: SYVLTQPPSVSVAPGQTARITCGGNNIGSKSVHWYQQKPGQAPVLVVYDDSDRPSGIPERFSGSNSGNTATLTISRVEAGDEADYYCQVWDSSSDHVVFGGGTKLTVL
notes: Fully human monoclonal antibody with a human constant region of IgG4 isotype
As usually defined, the Kd is a measure of binding affinity in units of concentration. As usually defined, the IC50 is the concentration that inhibits the measured activity by half. A lower IC50 goes with greater potency in that assay. Broadly, the EC50 (read off the curve) is the concentration at which the effect is half-maximal. A higher EC50 (read off the curve) goes with a less potent agent. B1: the binding result (in assay [1]; in the assay with murine PD-L1; in assay [3]) was “no binding” throughout. In addition, in the assay with recombinant human PD-L1, the Kd came out at 0.392 nM. Also, the IC50 in assay [2] is about 10 nM. For the same molecule, the “EC50 (read off the curve)” value in [4] was about 1 nM. Also, the fold change in assay [5] is 0.563 fold; in assay [6], 0.759 fold; in [7], 0.805 fold; in assay [8] it was 0.974 fold. Moreover, the “IC50 (read off the curve)” value in [9] is about 2 nM.
